Here are results for one molecule from patent publication US20160208003A1 (AFFITECH RESEARCH, published 2016).

The target in test [1] is T1, human CC chemokine receptor 4 (CCR4) (human, UniProt P51679 1-360).
T1 construct: whole, on cells; Always presented on cells; also called CD194; human CCR4
T1 sequence (looked up): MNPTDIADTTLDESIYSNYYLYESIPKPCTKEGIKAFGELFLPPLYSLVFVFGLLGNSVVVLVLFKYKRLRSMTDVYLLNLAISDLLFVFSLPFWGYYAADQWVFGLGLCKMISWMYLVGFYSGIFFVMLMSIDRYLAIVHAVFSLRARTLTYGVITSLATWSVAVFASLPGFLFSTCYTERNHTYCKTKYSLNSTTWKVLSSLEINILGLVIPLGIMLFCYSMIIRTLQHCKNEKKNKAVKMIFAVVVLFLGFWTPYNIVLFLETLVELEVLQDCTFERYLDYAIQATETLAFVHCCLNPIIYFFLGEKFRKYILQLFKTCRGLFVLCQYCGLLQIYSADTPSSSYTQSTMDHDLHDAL
Put plainly: calculated from the IC50; DT-40-CCR4+ cells, competitor 3.3 nM biotinylated IgG 9E. As to the method: DT40 and CCRF-CEM cells were cultivated as described in Example 2. The cells were harvested from culture flasks, washed 2 times with PBS (400×g, 5 min, 4° C.) and resuspended in PBS containing 0.2% BSA and 0.09% NaN3. 1×10^5 cells per well were aliquoted into V-shaped 96-well plates (Griner Bio-One, Frikenhausen, Germany). Cells were centrifuged (400×g, 5 min, 4° C.) and resuspended in 50 μl IgG 9E10J or KM3060var (dilution series starting at 5 μg/ml) mixed with biotinylated competitor antibody 9E (0.1 or 0.5 μg/ml). The cells were incubated for 2 hours at 4° C., mixing with a pipette every 45 min. The cells were washed three times with 150 μl PBS with 0.2% BSA and 0.09% NaN3 and stained with 3 μg/ml streptavidin PE (BD Biosciences) for 45 minutes at 4° C. Cells were washed, resuspended in 200 μl PBS with 0.2% BSA and 0.09% NaN3, and transferred to a U-shaped 96 well Costar (Corning, Schiphol-Rijik, The Netherlands) plate for flow cytometry using an FACS Canto II flow cytometer (BD Biosciences, Heidelberg, Germany).

In test [2] the target is T1, human CC chemokine receptor 4 (CCR4). In words: flow cytometry competition on DT-40-CCR4+ cells; IgG titrated, competitor biotinylated MDC (ca. 10 nM). The method, then:
The competition binding assays were performed with biotinylated MDC or biotinylated TARC on DT-40-CCR4+ and CCRF-CEM cells. DT40 and CCRF-CEM cells were cultured as described in Example 2. TARC and MDC were biotinylated using standard procedures. The biotinylation process causes some losses, so the concentrations of biotinylated MDC and TARC recited herein are approximate.
The cells were harvested from culture flasks, washed 2 times with PBS (400×g, 5 min, 4° C.) and resuspended in PBS containing 0.2% BSA and 0.09% NaN3. 1×10^5 cells per well were aliquoted into V-shaped 96-well plates (Greiner Bio-One, Frikenhausen, Germany). Cells were centrifuged (400×g, 5 min, 4° C.) and resuspended in 50 μl IgG, single chain or unlabeled ligand (1:10 dilution series starting on 100/500/26, 4 μg/ml) mixed with a fixed concentration of biotinylated ligand (10 or 20 nM, see legend to FIG. 24). The cells were incubated for 2 hours at 4° C. and mixed with a pipette every 45 min. The cells were washed three times with 150 μl PBS with 0.2% BSA and 0.09% NaN3 and stained with 3 μg/ml streptavidin PE (BD Biosciences) for 45 minutes at 4° C. […] Apparent binding affinities (KD) were calculated according to the following equation derived from previously described methods (Kipriyanov et al, 1997b; Schodin & Kranz, 1993): […]

B1: 9E10J IgG (full length human IgG1, lambda) (antibody, V domains shown)
VH: QVQLVQSGAEVKKPGSSVKVSCKASGGTFSSYAISWVRQAPGQGLEWMGGIIPIFGTANYAQKFQGRVTMTRDTSTSTVYMELSSLRSEDTAVYYCARRGGSYFDYWGQGTLVTVSS
VL: SYVLTQPPSASGTPGQSVTISCSGSTSNIGSHYVFWYQQLPGTAPRLLIYRNHQRPSGVPDRLSGSKSGTSASLAISGLRSEDEADYYCAVWDDTLSGWVFGGGTKLTVLG
notes: also called IgG 9E10J; unmodified 9E10J
Turning to B1, the dissociation constant Kd in test [1] was 0.09 nM. In addition, in test [2], the half-inhibitory concentration (IC50) was 0.76 nM.

Broadly, the Kd is the equilibrium constant for the complex coming apart. For orientation: IC50 means the concentration at which inhibition is half-maximal.
